This note sets out measurements from patent US20240301038A1 (ATRECA, published 2024).

For orientation: koff means the rate constant with which the complex falls apart. A word on the kon: it is the second-order rate constant of association. Lower therefore signals slower complex formation.

The assay deals with SARS-CoV-2 Spike S1 subunit (Sino Biological) (SARS-CoV-2, UniProt P0DTC2 16-685).

B1: AB-009270 (antibody, V domains shown)
VH: QMQLVQSGPEVKKPGTSVKVSCKASGFTFTSSAMQWVRQARGQRLEWIGWIVVGSGNTNYAQKFQERVTITRDMSTSTAYMELSSLRSEDTAVYYCAVNYCSSTSCYDAFDIWGQGTMVTVSS
VL: not shown
Molecule B1 showed a koff of 0.000208 s⁻¹ and a kon of 69000 M⁻¹ s⁻¹.

B2: AB-009760 (antibody, V domains shown)
VH: EVQLVQSGAEVKKPGESLKISCKGSGYSFTSYWIGWVRQMPGKGLEWMGIIYPGDSDTRYSPSFQGQVTISADKSISTAYLQWSSLKASDTAMYYCARSRSSDYFDYWGQGTLVTVSS
VL: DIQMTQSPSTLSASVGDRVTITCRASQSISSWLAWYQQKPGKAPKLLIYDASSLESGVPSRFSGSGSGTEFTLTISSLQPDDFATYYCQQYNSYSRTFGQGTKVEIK
With B2, the association rate constant (kon) turned out to be 64100 M⁻¹ s⁻¹.
